Stoichiometry N and pKa data for two substances are collected here from doi:10.1101/2025.09.16.675330.

In data set [1] the target is ChR024 (cation-conducting channelrhodopsin), full-length wild type, residues M1-T280. The experiment in a line: cryo-EM structure.
A further data set has as its system Glu105. The experiment in a line: UV-vis. The following applies: dark (ground) state, retinal-bound wild type; cited from earlier work.

In turn, “ChR024 (cation-conducting channelrhodopsin), full-length wild type, residues M1-T280 (natural protein)” registered a stoichiometry N in data set [1] of 3.
“ChR024 (cation-conducting channelrhodopsin) (not stated (uncultured organism; sequence mined from a metagenomic database, identifier IMGM3300027749|Ga0209084_1026585|Ga0209084_10265853))”: the pKa with Glu105 was 8.25.
